The numbers were not newly measured in article PMC7736282, which cites them from elsewhere.

For the data set, the target named is Lys175 (UniProt position 175, VASSLKWRCPF). Put plainly: NMR.

“VP39, cap-specific mRNA (nucleoside-2'-O-)-methyltransferase / poly(A) polymerase small subunit (Vaccinia virus)”: the pKa is 8.5.
